{"source": "patent US6140052", "about": "“cMYC is regulated by Tcf-4” (The Johns Hopkins University, dated 1998)", "molecules": {"B1": {"name": "β-catenin (endogenous, human colorectal cancer cell lines HT29, SW480) (other)", "chain": "ATQADLMELDMAMEPDRKAAVSHWQQQSYLDSGIHSGATTTAPSLSGKGNPEEEDVDTSQVLYEWEQGFSQSFTQEQVADIDGQYAMTRAQRVRAAMFPETLDEGMQIPSTQFDAAHPTNVQRLAEPSQMLKHAVVNLINYQDDAELATRAIPELTKLLNDEDQVVVNKAAVMVHQLSKKEASRHAIMRSPQMVSAIVRTMQNTNDVETARCTAGTLHNLSHHREGLLAIFKSGGIPALVKMLGSPVDSVLFYAITTLHNLLLHQEGAKMAVRLAGGLQKMVALLNKTNVKFLAITTDCLQILAYGNQESKLIILASGGPQALVNIMRTYTYEKLLWTTSRVLKVLSVCSSNKPAIVEAGGMQALGLHLTDPSQRLVQNCLWTLRNLSDAATKQEGMEGLLGTLVQLLGSDDINVVTCAAGILSNLTCNNYKNKMMVCQVGGIEALVRTVLRAGDREDITEPAICALRHLTSRHQEAEMAQNAVRLHYGLPVVVKLLHPPSHWPLIKATVGLIRNLALCPANHAPLREQGAIPRLVQLLVRAHQDTQRRTSMGGTQQQFVEGVRMEEIVEGCTGALHILARDVHNRIVIRGLNTIPLFVQLLYSPIENIQRVAAGVLCELAQDKEAAEAIEAEGATAPLTELLHSRNEGVATYAAAVLFRMSEDKPQDYKKRLSVELTSSLFRTEPMAWNETADLGLDIGAQGEPLGYRQDDPSYRSFHSGGYGQDALGMDPMMEHEMGGHHPGADYPVDGLPDLGHAQDLMDGLPPGDSNQLAWFDTDL"}}, "key": {"[1]": {"biological_target": "Myc-tagged hTcf-4 (epitope-tagged hTcf-4 in expression vector pCDNA) (human)"}, "[2]": {"biological_target": "T1, hTcf-4 (endogenous, in nuclear extracts or cells) (human)", "T1 chain": "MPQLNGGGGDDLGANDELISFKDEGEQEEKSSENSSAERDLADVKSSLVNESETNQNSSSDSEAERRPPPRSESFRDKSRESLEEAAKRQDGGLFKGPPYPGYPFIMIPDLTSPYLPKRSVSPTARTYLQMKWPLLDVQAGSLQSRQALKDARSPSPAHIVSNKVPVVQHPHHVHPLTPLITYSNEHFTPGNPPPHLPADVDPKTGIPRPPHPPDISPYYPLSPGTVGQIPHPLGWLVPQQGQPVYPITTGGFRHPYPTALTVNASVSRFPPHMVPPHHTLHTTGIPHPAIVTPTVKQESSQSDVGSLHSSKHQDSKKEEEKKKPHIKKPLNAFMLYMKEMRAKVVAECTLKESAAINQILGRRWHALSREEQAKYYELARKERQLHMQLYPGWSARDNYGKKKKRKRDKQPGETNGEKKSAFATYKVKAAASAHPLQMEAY", "assay": "gel retardation of nuclear extracts of HT29-APC1 cells after 20 h Zn++ induction of APC", "method": "Figure 2C: Figure 4: FIG. 4. Constitutive presence of β-catenin-hTcf-4 complexes in APC^{-/-} cells. Gel retardation assays were performed on nuclear extracts from the indicated cell lines before and after a 20-hour exposure to Zn^++. Samples in lanes 1, 4, 7, 10 were incubated under standard conditions. To the samples in lanes 2, 5, 8, 11, 0.25 μg, anti β-catenin was added. To the samples in lanes 3, 6, 9, 12, 0.25 μg of a control (human CD4) antibody was added. N.S., nonspecific band also observed with mutant (nonbinding) probe (lane Mt).\nGel retardation assays were performed as described elsewhere (7). Extracts were prepared from intact nuclei that were washed four times to avoid contamination with cytoplasmic β-catenin. As the optimal Tcf/Lef probe, we used a double-stranded 15-mer […] (SEQ ID NO: 12); the control probe was […] (SEQ ID NO:13). (All oligonudeotides were from Isogene, Holland). The β-catenin antibody was purchased from Transduction Laboratories (Lexington, Ky.). A typical binding reaction contained 3 μg nuclear protein, 0.1 ng radiolabeled probe, 100 ng of dIdC, in 25 μl of binding buffer (60 mm KCl, 1 mM EDTA, 1 mM DTT, 10% glycerol). Samples were incubated for 20 min at room temperature, antibody was added, and the samples incubated 20 min further."}}}
{"molecule": "β-Cat Δ45 (mutant β-catenin from HCT116, deletion of Ser-45) (from UniProt P35222)", "values": [{"measurement": "CRT reporter activity in 293 cells cotransfected with a Tcf-4 expression vector", "setting": "[1]", "result": 6, "unit": "fold"}]}
{"molecule": "β-Cat S33Y (mutant β-catenin from SW48) (from UniProt P35222)", "values": [{"measurement": "CRT reporter activity in 293 cells cotransfected with a Tcf-4 expression vector", "setting": "[1]", "result": 6, "unit": "fold"}]}
{"molecule": "B1", "values": [{"measurement": "decrease of the complex relative to uncomplexed hTcf-4 after Zn++ induction of APC", "setting": "[2]", "result": 6, "unit": "fold"}]}
